Measurements from patent US20260209266A1.

How the values were obtained:
[1] = molecular target: Protein A (immobilized on a chromatography column) (UniProt P38507); test: Protein A chromatography (rProtein A FF), step gradient, 20 mM sodium citrate, 1 M NaCl
[2] = molecular target: Protein A (immobilized on a chromatography column) (UniProt P38507); test: Protein A chromatography, linear pH gradient

Substance | elution pH from Protein A column [1] [pH] | elution pH from Protein A column [2] [pH]
differentially modified heterodimeric human IgG2 Fc/ΔAdpFc (from UniProt P01859 99-219; P01859 99-219) | 4.5 | 
IgG1 heterodimer having two IgG1 heavy chains identical but for an H435R/Y436F dipeptide modification in one CH3 domain (antibody) |  | 3.9
differentially modified heterodimeric human IgG4 (Fc/ΔAdpFc) (from UniProt P01861 99-220; P01861 99-220) | 4 | 
